# Assay results as given in patent publication US7662583B2, “Bioreactor containing cells expressing glycosyltransferase nucleic acids isolatable from Arabidopsis” (The University of York, priority 2003, dated 2010).
# B1: UGT71C3: Arabidopsis recombinant glycosyltransferase, FIG. 2 (protein, listed as Arabidopsis thaliana)
# chain: MKAEAEIIFVTYPSPGHLLVSIEFAKSLIKRDDRIHTITILYWALPLAPQAHLFAKSLVASQPRIRLLALPDVQNPPPLELFFKAPEAYILESTKKTVPLVRDALSTLVSSRKESGSVRVVGLVIDFFCVPMIEVANELNLPSYIFLTCNAGFLSMMKYLPERHRITTSELDLSSGNVEHPIPGYVCSVPTKVLPPGLFVRESYEAWVEIAEKFPGAKGILVNSVTCLEQNAFDYFARLDENYPPVYPVGPVLSLKDRPSPNLDASDRDRIMRWLEDQPESSIVYICFGSLGIIGKLQIEEIAEALELTGHRFLWSIRTNPTEKASPYDLLPEGFLDRTASKGLVCDWAPQVEVLAHKALGGFVSHCGWNSVLESLWFGVPIATWPMYAEQQLNAFSMVKELGLAVELRLDYVSAYGEIVKAEEIAGAIRSLMDGEDTPRKRVKEMAEAARNALMDGGSSFVAVKRFLDELIGGDV
# B2: UGT76D1: Arabidopsis recombinant glycosyltransferase, FIG. 7 (protein, listed as Arabidopsis thaliana)
# chain: MAEIRQRRVLMVPAPFQGHLPSMMNLASYLSSQGFSITIVRNEFNFKDISHNFPGIKFFTIKDGLSESDVKSLGLLEFVLELNSVCEPLLKEFLTNHDDVVDFIIYDEFVYFPRRVAEDMNLPKMVFSPSSAATSISRCVLMENQSNGLLPPQDARSQLEETVPEFHPFRFKDLPFTAYGSMERLMILYENVSNRASSSGIIHNSSDCLENSFITTAQEKWGVPVYPVGPLHMTNSAMSCPSLFEEERNCLEWLEKQETSSVIYISMGSLAMTQDIEAVEMAMGFVQSNQPFLWVIRPGSINGQESLDFLPEQFNQTVTDGRGFVVKWAPQKEVLRHRAVGGFWNHGGWNSCLESISSGVPMICRPYSGDQRVNTRLMSHVWQTAYEIEGELERGAVEMAVRRLIVDQEGQEMRMRATILKEEVEASVTTEGSSHNSLNNLVHAIMMQIDEQ
# B3: UGT73B4: Arabidopsis recombinant glycosyltransferase (protein, UniProt Q7Y232 1-484, looked up)
# UDP-glycosyltransferase 73B4: MNREQIHILFFPFMAHGHMIPLLDMAKLFARRGAKSTLLTTPINAKILEKPIEAFKVQNPDLEIGIKILNFPCVELGLPEGCENRDFINSYQKSDSFDLFLKFLFSTKYMKQQLESFIETTKPSALVADMFFPWATESAEKIGVPRLVFHGTSSFALCCSYNMRIHKPHKKVASSSTPFVIPGLPGDIVITEDQANVTNEETPFGKFWKEVRESETSSFGVLVNSFYELESSYADFYRSFVAKKAWHIGPLSLSNRGIAEKAGRGKKANIDEQECLKWLDSKTPGSVVYLSFGSGTGLPNEQLLEIAFGLEGSGQNFIWVVSKNENQVGTGENEDWLPKGFEERNKGKGLIIRGWAPQVLILDHKAIGGFVTHCGWNSTLEGIAAGLPMVTWPMGAEQFYNEKLLTKVLRIGVNVGATELVKKGKLISRAQVEKAVREVIGGEKAEERRLRAKELGEMAKAAVEEGGSSYNDVNKFMEELNGRK
# B4: UGT71C4: Arabidopsis recombinant glycosyltransferase, FIG. 3 (protein, listed as Arabidopsis thaliana)
# chain: MVKETELIFIPVPSTGHILVHIEFAKRLINLDHRIHTITILNLSSPSSPHASVFARSLIASQPKIRLHDLPPIQDPPPFDLYQRAPEAYIVKLIKKNTPLIKDAVSSIVASRRGGSDSVQVAGLVLDLFCNSLVKDVGNELNLPSYIYLTCNARYLGMMKYIPDRHRKIASEFDLSSGDEELPVPGFINAIPTKFMPPGLFNKEAYEAYVELAPRFADAKGILVNSFTELEPHPFDYFSHLEKFPPVYPVGPILSLKDRASPNEEAVDRDQIVGWLDDQPESSVVFLCFGSRGSVDEPQVKEIARALELVGCRFLWSIRTSGDVETNPNDVLPEGFMGRVAGRGLVCGWAPQVEVLAHKAIGGFVSHCGWNSTLESLWFGVPVATWPMYAEQQLNAFTLVKELGLAVDLRMDYVSSRGGLVTCDEIARAVRSLMDGGDEKRKKVKEMADAARKALMDGGSSSLATARFIAELFEDGSSC
# B5: UGT73B1: Arabidopsis recombinant glycosyltransferase (protein, UniProt Q8VZE9 1-488, looked up)
# UDP-glycosyltransferase 73B1: MGTPVEVSKLHFLLFPFMAHGHMIPTLDMAKLFATKGAKSTILTTPLNAKLFFEKPIKSFNQDNPGLEDITIQILNFPCTELGLPDGCENTDFIFSTPDLNVGDLSQKFLLAMKYFEEPLEELLVTMRPDCLVGNMFFPWSTKVAEKFGVPRLVFHGTGYFSLCASHCIRLPKNVATSSEPFVIPDLPGDILITEEQVMETEEESVMGRFMKAIRDSERDSFGVLVNSFYELEQAYSDYFKSFVAKRAWHIGPLSLGNRKFEEKAERGKKASIDEHECLKWLDSKKCDSVIYMAFGTMSSFKNEQLIEIAAGLDMSGHDFVWVVNRKGSQVEKEDWLPEGFEEKTKGKGLIIRGWAPQVLILEHKAIGGFLTHCGWNSLLEGVAAGLPMVTWPVGAEQFYNEKLVTQVLKTGVSVGVKKMMQVVGDFISREKVEGAVREVMVGEERRKRAKELAEMAKNAVKEGGSSDLEVDRLMEELTLVKLQKEKV
# B6: UGT76E2: Arabidopsis recombinant glycosyltransferase, FIG. 8 (protein, listed as Arabidopsis thaliana)
# chain: MEEKQVKETRIVLVPVPAQGHVTPMMQLGKALHSKGFSITVVLTQSNRVSSSKDFSDFHFLTIPGSLTESDLQNLGPQKFVLKLNQICEASFKQCIGQLLHEQCNNDIACVVYDEYMYFSHAAVKEFQLPSVVFSTTSATAFVCRSVLSRVNAESFLIDMKDPETQDKVFPGLHPLRYKDLPTSVFGPIESTLKVYSETVNTRTASAVIINSASCLESSSLARLQQQLQVPVYPIGPLHITASAPSSLLEEDRSCVEWLNKQKSNSVIYISLGSLALMDTKDMLEMAWGLSNSNQPFLWVVRPGSIPGSEWTESLPEEFNRLVSERGYIVKWAPQMEVLRHPAVGGFWSHCGWNSTVESIGEGVPMICRPFTGDQKVNARYLERVWRIGVQLEGDLDKETVERAVEWLLVDEEGAEMRKRAIDLKEKIETSVRSGGSSCSSLDDFVNSM
# B7: UGT76E11: Arabidopsis recombinant glycosyltransferase (protein, UniProt Q9SNB1 1-451, looked up)
# UDP-glycosyltransferase 76E11: MEEKPAGRRVVLVAVPAQGHISPIMQLAKTLHLKGFSITIAQTKFNYFSPSDDFTDFQFVTIPESLPESDFEDLGPIEFLHKLNKECQVSFKDCLGQLLLQQGNEIACVVYDEFMYFAEAAAKEFKLPNVIFSTTSATAFVCRSAFDKLYANSILTPLKEPKGQQNELVPEFHPLRCKDFPVSHWASLESMMELYRNTVDKRTASSVIINTASCLESSSLSRLQQQLQIPVYPIGPLHLVASASTSLLEENKSCIEWLNKQKKNSVIFVSLGSLALMEINEVIETALGLDSSKQQFLWVIRPGSVRGSEWIENLPKEFSKIISGRGYIVKWAPQKEVLSHPAVGGFWSHCGWNSTLESIGEGVPMICKPFSSDQMVNARYLECVWKIGIQVEGDLDRGAVERAVRRLMVEEEGEGMRKRAISLKEQLRASVISGGSSHNSLEEFVHYMRTL
# Test: UGT enzyme reaction with quercetin (recombinant UGTs, HPLC)
# Type: biochemical, Arabidopsis
# Details: quercetin glucosylated at 3-OH; 0.5 mM quercetin, 5 mM UDP-glucose, 30° C.
# Method: The assay mix (200 μl) contained 2 μg of recombinant protein, 100 mM Tris-HCl, pH 7.0, 5 mM UDP-glucose 1.4 mM 2-mercaptoethanol, and 0.5 mM of quercetin. The reaction was carried out at 30° C. for 1 h, and was quick-frozen and stored at −20° C. prior to the reverse-phase HPLC analysis
# Reverse-phase HPLC (SpectraSYSTEM HPLC systems and UV6000LP Photodiode Array Detector, ThermoQuest) analysis was carried using a Columbus 5μ C18 column (250×4.60 mm, PHENOMENEX). Quercetin glucosides were separated from the aglycone by a linear gradient of 10-75% acetonitrile in H2O (all solution contained 0.1% trifluoroacetic acid) at 1 ml/mm over 20 mm and monitored at 370 nm. Cytokinin glucosides were separated from their aglycone by a liner gradient of 10-100% methanol in H2O (for N6-isopentenyladenine (iP), N6-benzyladenine and kinetin) or 10-60% methanol in H2O (for trans-zeatin and dihydrozeatin) at 1 ml/min over 20 mm. All solution contained 0.25% acetic acid and 0.04% triethylamine, trifluoroacetic acid. The separation was monitored at 206 nm and 252 nm. The identity of the products was confirmed by comparison with authentic gluco sides.
# The activity of Arabidopsis recombinant UGTs towards quercetin was determined using the platform developed previously^15.
row,Molecule,Specific activity (nkat/mg protein) 3-O-glc
1,B1,0.11 nkat/mg protein
2,B2,— (Activity lower than 0.02 nkat/mg protein has been considered as trace activity and is not shown in the Table.)
3,B3,12.14 nkat/mg protein
4,B4,1.33 nkat/mg protein
5,B5,0.32 nkat/mg protein
6,B6,0.17 nkat/mg protein
7,B7,0.08 nkat/mg protein

# Same assay, conditions: quercetin glucosylated at 3′-OH; 0.5 mM quercetin, 5 mM UDP-glucose, 30° C.
row,Molecule,Specific activity (nkat/mg protein) 3′-O-glc
1,B1,— (Activity lower than 0.02 nkat/mg protein has been considered as trace activity and is not shown in the Table.)
2,B2,— (Activity lower than 0.02 nkat/mg protein has been considered as trace activity and is not shown in the Table.)
3,B3,— (Activity lower than 0.02 nkat/mg protein has been considered as trace activity and is not shown in the Table.)
4,B4,— (Activity lower than 0.02 nkat/mg protein has been considered as trace activity and is not shown in the Table.)
5,B5,— (Activity lower than 0.02 nkat/mg protein has been considered as trace activity and is not shown in the Table.)
6,B6,— (Activity lower than 0.02 nkat/mg protein has been considered as trace activity and is not shown in the Table.)
7,B7,— (Activity lower than 0.02 nkat/mg protein has been considered as trace activity and is not shown in the Table.)

# Same assay, conditions: quercetin glucosylated at 4′-OH; 0.5 mM quercetin, 5 mM UDP-glucose, 30° C.
row,Molecule,Specific activity (nkat/mg protein) 4′-O-glc
1,B1,— (Activity lower than 0.02 nkat/mg protein has been considered as trace activity and is not shown in the Table.)
2,B2,— (Activity lower than 0.02 nkat/mg protein has been considered as trace activity and is not shown in the Table.)
3,B3,— (Activity lower than 0.02 nkat/mg protein has been considered as trace activity and is not shown in the Table.)
4,B4,— (Activity lower than 0.02 nkat/mg protein has been considered as trace activity and is not shown in the Table.)
5,B5,— (Activity lower than 0.02 nkat/mg protein has been considered as trace activity and is not shown in the Table.)
6,B6,— (Activity lower than 0.02 nkat/mg protein has been considered as trace activity and is not shown in the Table.)
7,B7,— (Activity lower than 0.02 nkat/mg protein has been considered as trace activity and is not shown in the Table.)

# Same assay, conditions: quercetin glucosylated at 7-OH; 0.5 mM quercetin, 5 mM UDP-glucose, 30° C.
row,Molecule,Specific activity (nkat/mg protein) 7-O-glc
1,B1,— (Activity lower than 0.02 nkat/mg protein has been considered as trace activity and is not shown in the Table.)
2,B2,0.24 nkat/mg protein
3,B3,0.18 nkat/mg protein
4,B4,0.63 nkat/mg protein
5,B5,0.14 nkat/mg protein
6,B6,0.21 nkat/mg protein
7,B7,0.12 nkat/mg protein
